The numbers were not newly measured in patent US20050107320A1, “Methods and compositions for use in interventional pharmacogenomics” (priority 2003, published 2005), which cites them from elsewhere.

For data set [1] the following is noted: administered systemically.

In the case of “EPO: glycoprotein hormone involved in the growth and maturation of erythroid progenitor cells into erythrocytes”, the clinical tolerability result is “well tolerated clinically”. Besides, the “crossing of the blood-brain barrier” value in data set [1] is reported as “can cross the blood-brain barrier”.
